These results are taken from patent US20080104734A1.

This test has as its target SSPG1d peptide (…) (Sclerotinia sclerotiorum). The test is described as follows: phage ELISA during panning of the phage display scFv library. Background: In an ELISA, binding on a coated surface is turned into a signal by an enzyme label.

B1: scFv-SSPG1d-peptide (scFv)
scFv: MDIVLTQSPAIMSASPGEKVTMTCSASSSVSYMHWYQQKSSTSPKLWIYDTSKLASGVPGRFSGSGSGNSYSLTISSMEAEDVATYYCFQGSGYPLTFGAGTKLEIKRGAGGSGGGGSGGGGSGGGGSQVQLQQSGAELVRPGSSVKISCKASGYAFSNYWMNWVKQRPGQGLEWIGQIYPGYGDAKYNGKFKGKATLTADISSSTAYMQLSSLTSEDSAVYFCARSSYEANWGQGTLVTVSA
In turn, B1 gave an absorbance at 450 nm above background (absorbance (450 nm)) of 0.871.
